From patent US20210156867A1 (YEDA RESEARCH AND DEVELOPMENT, published 2021)

B1: GST-P1 (enzyme, human, UniProt P09211 1-210, looked up)
GST-P1 subunit: MPPYTVVYFPVRGRCAALRMLLADQGQSWKEEVVTVETWQEGSLKASCLYGQLPKFQDGDLTLYQSNTILRHLGRTLGLYGKDQQEAALVDMVNDGVEDLRCKYISLIYTNYEAGKDDYVKALPGQLKPFETLLSQNQGGKTFIVGDQISFADYNLLDLLLIHEVLAPGCLDAFPLLSAYVGRLSARPKLKAFLASPEYVNLPINGNGKQ
notes: recombinant; also called human recombinant GST-P1-1

Assays:
[1] = biological target: T1, recombinant human B-cell lymphoma protein 2 alpha His-Tag (Bcl-2) (human, UniProt P10415 1-211, limits assumed); test: fluorescence displacement assay: emission of the His-Bcl-2-compound 5 sensor complex (200 nM) after adding 800 nM protein
T1 construct: In the assay it was in complex with the Ni-NTA sensor compound 5; also called His-Bcl-2; not shown: His-tag

[2] = biological target: T1, recombinant human B-cell lymphoma …; test: fluorescence displacement assay: emission of the His-Bcl-2-compound 5 sensor complex (200 nM) after adding 800 nM peptide
Description: Fluorescence measurements were performed in triplicate. The emission intensities before the addition of each protein were normalized to 100*14 (FIG. 27b).

[3] = biological target: T2, mouse recombinant His-calmodulin, calcium-bound (mouse, UniProt P0DP26 1-149); test: SPR, His-CaM immobilised on CM5 chip, analyte pre-incubated with 0.3 mM CaCl2
T2 construct: also called His-CaM(Ca^2+); His-CaM(Ca^+2)

T1 sequence (P10415 1-211 limits assumed): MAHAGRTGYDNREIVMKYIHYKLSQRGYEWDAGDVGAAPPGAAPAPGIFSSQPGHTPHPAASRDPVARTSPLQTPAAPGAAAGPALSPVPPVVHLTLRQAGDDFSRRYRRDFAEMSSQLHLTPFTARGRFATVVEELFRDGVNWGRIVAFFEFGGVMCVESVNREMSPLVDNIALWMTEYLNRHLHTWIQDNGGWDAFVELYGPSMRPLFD

Binder	binding result [1]	binding result [2]	Kd [3] [nM]
B1	no binding (tested: 800 nM)	–	–
KRRWKKNFIAVSAANRFKKISSSGAL (peptide, UniProt P07313 578-603, looked up, check before use)	–	no binding (tested: 800 nM)	8.8
